These results are taken from paper PMC4437705 (Nature, 2013).

The series “crystal structure” concerns the molecule itself. Description: crystal structure.
For series [1], the target named is T1, apo-FabA (E. coli fatty acid 3-hydroxyacyl-ACP dehydratase, unlabeled, not crosslinked) (E. coli, UniProt P0A6Q3 2-172).
T1 sequence: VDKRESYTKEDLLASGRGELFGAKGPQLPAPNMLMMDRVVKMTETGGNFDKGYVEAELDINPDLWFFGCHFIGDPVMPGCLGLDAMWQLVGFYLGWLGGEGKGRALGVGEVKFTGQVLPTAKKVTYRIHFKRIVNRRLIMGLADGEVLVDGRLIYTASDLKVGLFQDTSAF
The experiment in a line: NMR titration.

B1: FabA (E. coli fatty acid 3-hydroxyacyl-ACP dehydratase) as in the crosslinked AcpP=FabA complex (enzyme)
chain: T1 sequence
modifications: H70 covalently connected through probe 1 to S36 of AcpP
Regarding B1, the stoichiometry N (usually the number of molecules, sites or subunits per partner or assembly) in “crystal structure” was 2.

B2: holo-AcpP (E. coli acyl carrier protein with 4'-phosphopantetheine) (natural protein)
chain: STIEERVKKIIGEQLGVKQEEVTNNASFVEDLGADSLDTVELVMALEEEFDTEIPDEEAEKITTVQAAIDYINGHQA
modifications: 4'-phosphopantetheine (PPant) on S36
Take B2: the binding result in series [1] is given as “binds”.

B3: octanoyl-AcpP (E. coli acyl carrier protein with octanoyl-4'-phosphopantetheine) (natural protein)
chain: B2 chain
modifications: octanoyl chain on the PPant arm attached to S36
On to B3, for which the binding result in series [1] was “binds”.
